This is an account of results in paper PMC9978635.

Some targets named below: CELF2; SRPR; TAGLN3.
Assay in all cases: BioID2 proximity biotinylation, streptavidin purification, TMT quantitative LC-MS
Details in all cases: untreated (-K18) neurons, 3 wk; read off a plot

The target of assay [1] is NADH:ubiquinone oxidoreductase core subunit S8 (UniProt O00217).
Chain of UniProt O00217 (O00217 35-210): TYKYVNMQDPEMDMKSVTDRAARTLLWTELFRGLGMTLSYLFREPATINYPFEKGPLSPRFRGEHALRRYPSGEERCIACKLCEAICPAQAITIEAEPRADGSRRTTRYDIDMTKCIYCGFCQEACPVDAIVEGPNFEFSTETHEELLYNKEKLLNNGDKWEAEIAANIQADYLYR

Consider “0N4R tau[WT]-BioID2 (from UniProt P10636-6) P301L”, for which the enrichment (log2 abundance ratio) is 1.2 in the assay with CELF2, 0.65 with SRPR, 2 with TAGLN3 and 2.5 in assay [1]. Besides, the other: log2 abundance ratio (mutant/WT) (log2 abundance ratio) with CELF2 is 2.1; with SRPR, 2; in the assay with TAGLN3 it was 0.95; in assay [1] it was 2.
